Test results as given in patent US20250179176A1, “ANTI-TIGIT ANTIBODIES AND USES OF THE SAME” (ARCUS BIOSCIENCES, INC., priority 2022, published 2025).

Assay: Clinical safety of domvanalimab, 99 participants (AB154CSP0001 and ARC-7): TEAEs, related AEs, SAEs
Format: in vivo, human
Conditions: for Any TEAEs / TEAE Diarrhoea / TEAE Fatigue / TEAE Nausea / TEAE Pruritus: Table 15

B1: domvanalimab: anti-TIGIT antibody with engineered IgG1 Fc, reduced FcγR binding; heavy chain SEQ ID NO: 12, light chain SEQ ID NO: 13 (antibody)
heavy: EVQLVESGGGLVQPGGSLRLSCAASGFTFSNFGMHWVRQAPGKGLEWVAFISSGSSSIYYADTVKGRFTISRDNAKNSLYLQMNSLRAEDTAVYYCARMRLDYYAMDYWGQGTMVTVSSASTKGPSVFPLAPSSKSTSGGTAALGCLVKDYFPEPVTVSWNSGALTSGVHTFPAVLQSSGLYSLSSVVTVPSSSLGTQTYICNVNHKPSNTKVDKKVEPKSCDKTHTCPPCPAPEAAGGPSVFLFPPKPKDTLMISRTPEVTCWVDVSHEDPEVKFNWYVDGVEVHNAKTKPREEQYNSTYRWSVLTVLHQDWLNGKEYKCKVSNKALPAPIEKTISKAKGQPREPQVYTLPPSRDELTKNQVSLTCLVKGFYPSDIAVEWESNGQPENNYKTTPPVLDSDGSFFLYSKLTVDKSRWQQGNVFSCSVMHEALHNHYTQKSLSLSPGK
light: DIQMTQSPSSLSASVGDRVTITCRASKSISKYLAWYQQKPGKAPKLLIYSGSTLQSGVPSRFSGSGSGTDFTLTISSLQPEDFATYYCQQHNEYPWTFGGGTKVEIKRTVAAPSVFIFPPSDEQLKSGTASWCLLNNFYPREAKVQWKVDNALQSGNSQESVTEQDSKDSTYSLSSTLTLSKADYEKHKVYACEVTHQGLSSPVTKSFNRGEC
ARC-7 (N = 37)
  Domvanalimab-related AE: Vomiting: 1 ( 2.7%)
ARC-7 (n = 37)
  Any TEAEs: 31 (83.8%)
  TEAE Diarrhoea: 5 (13.5%)
  TEAE Fatigue: 3 (8.1%)
  TEAE Nausea: 4 (10.8%)
  TEAE Pruritus: 4 (10.8%)
Total (n = 99)
  Any TEAEs: 84 (84.8%)
  TEAE Diarrhoea: 10 (10.1%)
  TEAE Fatigue: 12 (12.1%)
  TEAE Nausea: 13 (13.1%)
  TEAE Pruritus: 10 (10.1%)
N = 62
  Any TEAEs: 53 (85.5%)
  TEAE Diarrhoea: 5 (8.1%)
  TEAE Fatigue: 9 (14.5%)
  TEAE Nausea: 9 (14.5%)
  TEAE Pruritus: 6 (9.7%)
Total (N = 99)
  Domvanalimab-related AE: Abdominal distension: 1 ( 1.0%)
  Domvanalimab-related AE: Abdominal pain: 1 ( 1.0%)
  Domvanalimab-related AE: Adrenal insufficiency: 1 ( 1.0%)
  Domvanalimab-related AE: Anaemia: 1 ( 1.0%)
  Domvanalimab-related AE: Any AEs: 50 (50.5%)
  Domvanalimab-related AE: Arthralgia: 4 (4.0%)
  Domvanalimab-related AE: Arthritis: 1 ( 1.0%)
  Domvanalimab-related AE: Aspartate aminotransferase increased: 1 ( 1.0%)
  Domvanalimab-related AE: Asthenia: 1 ( 1.0%)
  Domvanalimab-related AE: Back pain: 2 ( 2.0%)
  Domvanalimab-related AE: Constipation: 2 ( 2.0%)
  Domvanalimab-related AE: Cough: 1 ( 1.0%)
  Domvanalimab-related AE: Decreased appetite: 3 (3.0%)
  Domvanalimab-related AE: Delirium: 1 ( 1.0%)
  Domvanalimab-related AE: Diarrhoea: 5 (5.1%)
  Domvanalimab-related AE: Dry eye: 1 ( 1.0%)
  Domvanalimab-related AE: Dry mouth: 1 ( 1.0%)
  Domvanalimab-related AE: Dyspnoea exertional: 1 ( 1.0%)
  Domvanalimab-related AE: Fatigue: 6 (6.1%)
  Domvanalimab-related AE: Flank pain: 1 ( 1.0%)
  Domvanalimab-related AE: Generalised oedema: 1 ( 1.0%)
  Domvanalimab-related AE: Headache: 4 (4.0%)
  Domvanalimab-related AE: Hot flush: 1 ( 1.0%)
  Domvanalimab-related AE: Hyperglycaemia: 1 ( 1.0%)
  Domvanalimab-related AE: Hyperkalaemia: 1 ( 1.0%)
  Domvanalimab-related AE: Hyperthyroidism: 3 (3.0%)
  Domvanalimab-related AE: Hypokalaemia: 1 ( 1.0%)
  Domvanalimab-related AE: Hypothyroidism: 4 (4.0%)
  Domvanalimab-related AE: Immune-mediated hepatitis: 2 ( 2.0%)
  Domvanalimab-related AE: Influenza like illness: 1 ( 1.0%)
  Domvanalimab-related AE: Infusion related reaction: 2 ( 2.0%)
  Domvanalimab-related AE: Infusion site pain: 1 ( 1.0%)
  Domvanalimab-related AE: Liver function test increased: 1 ( 1.0%)
  Domvanalimab-related AE: Lymphopenia: 1 ( 1.0%)
  Domvanalimab-related AE: Malaise: 2 ( 2.0%)
  Domvanalimab-related AE: Muscle spasms: 1 ( 1.0%)
  Domvanalimab-related AE: Musculoskeletal chest pain: 1 ( 1.0%)
  Domvanalimab-related AE: Myalgia: 1 ( 1.0%)
  Domvanalimab-related AE: Nail disorder: 1 ( 1.0%)
  Domvanalimab-related AE: Nasal mucosal disorder: 1 ( 1.0%)
  Domvanalimab-related AE: Nausea: 6 (6.1%)
  Domvanalimab-related AE: Oral pain: 1 ( 1.0%)
  Domvanalimab-related AE: Pain: 2 ( 2.0%)
  Domvanalimab-related AE: Pancreatitis: 1 ( 1.0%)
  Domvanalimab-related AE: Paraesthesia: 1 ( 1.0%)
  Domvanalimab-related AE: Peripheral sensory neuropathy: 1 ( 1.0%)
  Domvanalimab-related AE: Pneumonitis: 2 ( 2.0%)
  Domvanalimab-related AE: Pruritus: 9 (9.1%)
  Domvanalimab-related AE: Pruritus generalised: 1 ( 1.0%)
  Domvanalimab-related AE: Pulmonary pain: 1 ( 1.0%)
  Domvanalimab-related AE: Pyrexia: 5 (5.1%)
  Domvanalimab-related AE: Rash: 4 (4.0%)
  Domvanalimab-related AE: Rash maculo-papular: 6 (6.1%)
  Domvanalimab-related AE: Rash pruritic: 1 ( 1.0%)
  Domvanalimab-related AE: Rhinorrhoea: 1 ( 1.0%)
  Domvanalimab-related AE: Transaminases increased: 1 ( 1.0%)
  Domvanalimab-related AE: Tumour flare: 3 (3.0%)
  Domvanalimab-related AE: Tumour pain: 1 ( 1.0%)
  Domvanalimab-related AE: Vomiting: 1 ( 1.0%)
Clinical data to date
  tolerability in cancer patients: well tolerated
